Source: article PMC5350102, “Efficient Binding of the NOS1AP C-Terminus to the nNOS PDZ Pocket Requires the Concerted Action of the PDZ Ligand Motif, the Internal ExF Site and Structural Integrity of an Independent Element” (Frontiers in Molecular Neuroscience, 2017)
“And” between values parts separate entries of the source, which are not always exact repeats. Equal values may be shown once. Where no end group is shown, it is not given here. fluorescein = fluorescein label at the peptide N-terminus

Key:
Conditions in all cases: both partners purified
His-nNOS[1–155] [1] = target: T1, His-nNOS[1–155] (human, UniProt P29475-1 1-155); assay: fluorescence polarisation; competition FP: 1 μM F-GDLV, 4 μM His-nNOS(1–155), increasing competitor; approximate Kc (dissociation constant of the competitor, affinity for the nNOS PDZ pocket) from the single-site competition formula
T1 construct: Two batches were used

GST-nNOS[1–155] = target: T2, GST-nNOS[1–155] (human, UniProt P29475-1 1-155); assay: pull-down; solid-phase no-wash binding assay: 5 μl beads bound to 1 μg GST-fused nNOS protein (or GST for background) rotated with His-TAT-NOS1AP peptides for 1 h at 4°C; unbound removed by centrifugation in filter plates, no wash; bound peptide quantified by fluorescent immunoblot; GST background subtracted; 1-site quadratic fit
T2 construct: also called GST-fused nNOS protein

His-nNOS[1–155] [2] = target: T1, His-nNOS[1–155]; assay: fluorescence polarisation; increasing His-nNOS(1–155) added to 1 μM F-GDLV in 50 mM Tris pH 7.4, 100 mM NaCl, 1 mM EDTA, 0.1% BSA; one-site quadratic fit; triplicates from each of two nNOS batches
His-nNOS[1–155] [3] = target: T1, His-nNOS[1–155]; assay: as above; remark: listed apart in the source

B1: Peptide EIAV (NH2-DSLDDEIAV-COOH) (peptide)
peptide: H-DSLDDEIAV-OH
notes: last 9 amino acids of rat/mouse NOS1AP; also called NOS1AP-9C; DSLDDEIAV (NOS1AP-9C); source: synthetic peptide, synthesized by Xigen AG (Lausanne, Switzerland)
Ki (His-nNOS[1–155] [1]): > 300 µM

B2: His-TAT-NOS1AP[400–503], denatured (domain or fragment, human, UniProt O75052 400-503, looked up)
chain: HSPPLGAGLADFAHPAGSPLGRRDCLVKLECFRFLPPEDTPPPAQGEALLGGLELIKFRESGIASEYESNTDESEERDSWSQEELPRLLNVLQRQELGDGLDDE
notes: also called denatured NOS1AP[400–503]; NOS1AP 400-503 His-TAT fusion, Denatured
Kd (GST-nNOS[1–155]): 5.3 µM

B3: His-TAT-NOS1AP[400–503] E429A, denatured (domain or fragment, human, UniProt O75052 400-503, looked up)
chain: HSPPLGAGLADFAHPAGSPLGRRDCLVKLACFRFLPPEDTPPPAQGEALLGGLELIKFRESGIASEYESNTDESEERDSWSQEELPRLLNVLQRQELGDGLDDE
notes: NOS1AP, human, residues 400-503 with E429A in the ExF motif
Kd (GST-nNOS[1–155]): 99 µM

B4: His-TAT-NOS1AP[400–506], denatured (domain or fragment, human, UniProt O75052 400-506, looked up)
chain: HSPPLGAGLADFAHPAGSPLGRRDCLVKLECFRFLPPEDTPPPAQGEALLGGLELIKFRESGIASEYESNTDESEERDSWSQEELPRLLNVLQRQELGDGLDDEIAV
notes: Same construct as m10, but prepared under denaturing conditions
Kd (GST-nNOS[1–155]): 2.4 µM

B5: NOS1AP[400–506] F431A cleaved from GST (domain or fragment, human, UniProt O75052 400-506, looked up)
chain: HSPPLGAGLADFAHPAGSPLGRRDCLVKLECARFLPPEDTPPPAQGEALLGGLELIKFRESGIASEYESNTDESEERDSWSQEELPRLLNVLQRQELGDGLDDEIAV
Ki (His-nNOS[1–155] [1]): > 10 µM

B6: F-GDLV (fluorescein-RRRRWGDLV) (peptide)
peptide: fluorescein-RRRRWGDLV
notes: also called F-GLDV; source: synthetic peptide, bought: Genic Bio (Shanghai, China)
Kd (His-nNOS[1–155] [2]): 10.2 µM and 11.2 µM
Kd (His-nNOS[1–155] [3]): 10.7 µM

B7: NOS1AP[432–506] cleaved from GST (domain or fragment, human, UniProt O75052 432-506, looked up)
chain: RFLPPEDTPPPAQGEALLGGLELIKFRESGIASEYESNTDESEERDSWSQEELPRLLNVLQRQELGDGLDDEIAV
Ki (His-nNOS[1–155] [1]): > 10 µM

B8: Peptide GDLV (NH2-RRRRWGDLV-COOH) (peptide)
peptide: H-RRRRWGDLV-OH
notes: also called unlabelled GDLV; source: synthetic peptide, bought: Genic Bio (Shanghai, China)
Ki (His-nNOS[1–155] [1]): 10.7 µM
